Measured values: paper PMC9882070 (bioRxiv, 2023)

B1: R1R3_23Q tau peptide (peptide)
peptide: TENLKHQPGGGQVQIVYQ
B2: R2R3_3Q tau peptide (peptide)
peptide: KDNIKHVPGGGSVQIVYQ
B3: R1R3_13Q tau peptide (peptide)
peptide: TENLQHQPGGGKVQIVYQ
B4: R2R3_2Q tau peptide (peptide)
peptide: KDNIQHVPGGGSVQIVYK
B5: R1R3_12Q tau peptide (peptide)
peptide: TENLQHQPGGGQVQIVYK
B6: R1R2_12Q tau peptide (peptide)
peptide: TENLQHQPGGGQVQIINK

Columns and labels:
Assay in all cases: ThT fluorescence aggregation assay + negative-stain TEM
[1] = molecular target: R2R3Ac, R2R3 tau peptide chemically acetylated with N-succinimidyl acetate
[2] = molecular target: R1R3Ac, R1R3 tau peptide chemically acetylated with N-succinimidyl acetate
[3] = molecular target: the molecule itself

| Molecule | t1/2max of ThT aggregation [3] | further results |
| --- | --- | --- |
| R2R3Ac, R2R3 tau peptide chemically acetylated with N-succinimidyl acetate |  | t1/2max of ThT aggregation [1]: 98.9 h |
| R1R3Ac, R1R3 tau peptide chemically acetylated with N-succinimidyl acetate |  | t1/2max of ThT aggregation [2]: 39.8 h |
| B1 | < 6 h |  |
| B2 | 3.84 h |  |
| B3 |  | binding result [3]: binds |
| B4 | 72 ± 7.2 h |  |
| B5 | < 36 h |  |
| B6 | < 36 h |  |
